Reference: US11505811B2, “Method for the preparation of 2,4-dihydroxybutyrate” (ADISSEO FRANCE S.A.S., priority 2012, dated 2022)

Tests used:
[1] = test system: CC(=O)C(=O)O; assay: OHB/pyruvate reductase assay, Oc-LdhA; type: biochemical, Oryctalagus cuniculus; conditions: other: pH 7, 37° C., 0.25 mM NADH
From the text: (§1) The genes coding for (L)-malate dehydrogenase in Escherichia coli, Ec-mdh (SEQ ID NO: 1), (D)-lactate dehydrogenase in E. coli, Ec-ldhA (SEQ ID NO: 3), (L)-lactate dehydrogenase of Lactococcus lactis, Ll-ldhA (SEQ ID NO: 5), (L)-lactate dehydrogenase of Bacillus subtilis, Bs-ldh (SEQ ID NO: 7), (L)-lactate dehydrogenase of Geobacillus stearothermophilus, Gs-ldh (SEQ ID NO: 9), the two isoforms of the (L)-lactate dehydrogenase of Oryctalagus cuniculus, Oc-ldhA (SEQ ID NO: 11 and SEQ ID NO: 13), were amplified by PCR using the high-fidelity polymerase Phusion™ (Fermentas) and the primers listed in Table 1. Genomic DNAs of E. coli MG1655, L. lactis IL1403, and B. subtilis strain 168 were used as the template. The genes Oc-ldhA, and Gs-ldh were codon-optimized for expression in E. coli and synthesized by MWG Eurofins. The primers introduced restriction sites (Table 1) upstream of the start codon and downstream of the stop codon, respectively, facilitating the ligation of the digested PCR products into the corresponding sites of the pET28a+ (Novagen) expression vector using T4 DNA ligase (Fermentas). Ligation products were transformed into E. coli DH5a cells (NEB). […]

[2] = test system: O=C(O)C(=O)CCO; assay: OHB/pyruvate reductase assay, Oc-LdhA; type: biochemical, Oryctalagus cuniculus; conditions: other: pH 7, 37° C., 0.25 mM NADH
From the text: as §1

“Oryctolagus cuniculus (printed: Oryctalagus cuniculus) (L)-lactate dehydrogenase Oc-LdhA, SEQ ID NO: 12 and SEQ ID NO: 14 (two isoforms) (Oryctolagus cuniculus)” gave a Km [1] of 1.5 mM and a Km [2] of 13 mM.
